The target in one assay is T1, mouse TREM2 on BWZ cells (mouse, UniProt Q99NH8 19-227).
T1 construct: whole, on cells; also called BWZ Mouse TREM2
T1 sequence (looked up): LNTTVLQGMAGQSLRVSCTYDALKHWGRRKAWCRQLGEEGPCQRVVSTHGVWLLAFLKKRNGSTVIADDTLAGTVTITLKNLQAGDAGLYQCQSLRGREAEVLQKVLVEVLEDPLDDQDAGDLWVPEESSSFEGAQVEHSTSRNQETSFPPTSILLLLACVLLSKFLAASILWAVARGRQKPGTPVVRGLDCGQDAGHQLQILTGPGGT
The assay is described as follows: FACS, BWZ cells.

The target in another assay is T2, human TREM2 on BWZ cells (human, UniProt Q9NZC2 19-230).
T2 construct: whole, on cells; not tied to the cell line; also called BWZ Human TREM2
T2 sequence (looked up): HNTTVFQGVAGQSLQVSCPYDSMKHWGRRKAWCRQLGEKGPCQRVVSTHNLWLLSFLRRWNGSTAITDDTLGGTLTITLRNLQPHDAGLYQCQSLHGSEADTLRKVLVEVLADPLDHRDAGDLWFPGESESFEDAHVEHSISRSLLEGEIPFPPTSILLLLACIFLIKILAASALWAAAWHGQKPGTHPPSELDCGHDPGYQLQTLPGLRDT
The assay is described as follows: FACS, BWZ cells. (In flow cytometry, cells or beads pass a laser one at a time.)

B1: T1-49 (antibody, IgG1, V domains shown)
VH: QVQLVQSGAEVKKPGASVKVSCKASGYTFTSYYMHWVRQAPGQGLEWMGIINPSGGSTSYAQKFQGRVTMTRDTSTSTVYMELSSLRSEDTAVYYCAREAGSWLISTAFDIWGQGTMVTVSS
VL: not shown
notes: huIgG1; also called TI-49; ADI-19122
On to B1, for which the binding result with mouse TREM2 on BWZ cells is reported as “no binding”.

B2: T1-40 (antibody, IgG1, V domains shown)
VH: EVQLVESGGGLVKPGGSLRLSCAASGFTFSSYSMNWVRQAPGKGLEWVSSISSSSSYIYYADSVKGRFTISRDNAKNSLYLQMNSLRAEDTAVYYCARTRIDDSFDIWGQGTMVTVSS
VL: not shown
notes: huIgG1; also called TI-40; ADI-19114
For B2, the binding result with mouse TREM2 on BWZ cells and with human TREM2 on BWZ cells was “no binding” in each case.

B3: T1-37 (antibody, IgG1, V domains shown)
VH: QVQLVESGGGVVQPGRSLRLSCAASGFTFSSYGMHWVRQAPGKGLEWVALIWYDGSNKYYADSVKGRFTISRDNSKNTLYLQMNSLRAEDTAVYYCAKGDYLDPLFDYWGQGTLVTVSS
VL: EIVMTQSPATLSVSPGERATLSCRASQSVSSNLAWYQQKPGQAPRLLIYGASTRATGIPARFSGSGSGTEFTLTISSLQSEDFAVYYCQQYAYWPLTFGGGTKVEIK
notes: huIgG1; also called TI-37; ADI-19111
Consider B3, for which the binding result with mouse TREM2 on BWZ cells and with human TREM2 on BWZ cells was “no binding” in each case.

B4: T1-35 (antibody, IgG1, V domains shown)
VH: QVQLVESGGGVVQPGRSLRLSCAASGFTFSSYGMHWVRQAPGKGLEWVAVISYDGSNKYYADSVKGRFTISRDNSKNTLYLQMNSLRAEDTAVYYCARPDYYSSRGVFDIWGQGTMVTVSS
VL: not shown
notes: huIgG1; also called TI-35; ADI-19109
In the case of B4, the binding result with mouse TREM2 on BWZ cells and with human TREM2 on BWZ cells was “no binding” each time.

B5: T1-36 (antibody, IgG1, V domains shown)
VH: QVQLVESGGGVVQPGRSLRLSCAASGFTFSSYGMHWVRQAPGKGLEWVAVISYDGSNKYYADSVKGRFTISRDNSKNTLYLQMNSLRAEDTAVYYCARPDYYSSRGVFDIWGQGTMVTVSS
VL: not shown
notes: huIgG1; also called TI-36; ADI-19110
Regarding B5, the binding result with mouse TREM2 on BWZ cells and in the assay with human TREM2 on BWZ cells was “no binding” throughout.

B6: T1-39 (antibody, IgG1, V domains shown)
VH: EVQLVESGGGLVKPGGSLRLSCAASGFTFSSYSMNWVRQAPGKGLEWVSSISSSSNYIYYADSVKGRFTISRDNAKNSLYLQMNSLRAEDTAVYYCARRGGSSSTGLLYWGQGTLVTVSS
VL: DIQLTQSPSSVSASVGDRVTITCRASQDISSWLAWYQQKPGKAPKLLIYAASSLQSGVPSRFSGSGSGTDFTLTISSLQPEDFATYYCQQSLTHPTFGGGTKVEIK
notes: huIgG1; also called TI-39; ADI-19113
B6: the binding result with mouse TREM2 on BWZ cells and with human TREM2 on BWZ cells was “no binding” in each case.

B7: T1-44 (antibody, IgG1, V domains shown)
VH: QVQLVQSGAEVKKPGASVKVSCKASGYTFTSYYMHWVRQAPGQGLEWMGVINPSGGSTSYAQKFQGRVTMTRDTSTSTVYMELSSLRSEDTAVYYCAREGSGYDESMDVWGQGTTVTVSS
VL: not shown
notes: huIgG1; also called TI-44; ADI-19119
Take B7: the binding result with mouse TREM2 on BWZ cells and with human TREM2 on BWZ cells was “no binding” each time.

B8: T1-8 (antibody, IgG1, V domains shown)
VH: QVQLVQSGAEVKKPGASVKVSCKASGYTFTSYYMHWVRQAPGQGLEWMGIINPSGGSTSYAQKFQGRVTMTRDTSTSTVYMELSSLRSEDTAVYYCAREVSMTAASLDVWGQGTMVTVSS
VL: not shown
notes: huIgG1; also called TI-8; ADI-19074
Turning to B8, the binding result in the assay with mouse TREM2 on BWZ cells and with human TREM2 on BWZ cells was “no binding” each time.

B9: T1-10 (antibody, IgG1, V domains shown)
VH: QVQLVQSGAEVKKPGASVKVSCKASGYTFTSYYMHWVRQAPGQGLEWMGIINPSGGSTSYAQKFQGRVTMTRDTSTSTVYMELSSLRSEDTAVYYCAREGSGSWETLDVWGQGTMVTVSS
VL: not shown
notes: huIgG1; also called TI-10; ADI-19077
Regarding B9, the binding result with mouse TREM2 on BWZ cells and with human TREM2 on BWZ cells was “no binding” in each case.

B10: T1-48 (antibody, IgG1, V domains shown)
VH: QVQLVQSGAEVKKPGASVKVSCKASGYTFTSYYMHWVRQAPGQGLEWMGVINPGGGSTSYAQKFQGRVTMTRDTSTSTVYMELSSLRSEDTAVYYCAREAGQTSSALDVWGQGTMVTVSS
VL: not shown
notes: huIgG1; also called TI-48; ADI-19121
As to B10, the binding result with mouse TREM2 on BWZ cells and with human TREM2 on BWZ cells was “no binding” in each case.

B11: T1-46 (antibody, IgG1, V domains shown)
VH: QVQLVQSGAEVKKPGASVKVSCKASGYTFTSYYMHWVRQAPGQGLEWMGVINPSGGSTSYAQKFQGRVTMTRDTSTSTVYMELSSLRSEDTAVYYCAREGSGYDESMDVWGQGTTVTVSS
VL: not shown
notes: huIgG1; also called TI-46; ADI-19124
For the molecule B11, the binding result with mouse TREM2 on BWZ cells and in the assay with human TREM2 on BWZ cells was “no binding” throughout.

B12: T1-45 (antibody, IgG1, V domains shown)
VH: QVQLVQSGAEVKKPGASVKVSCKASGYTFTSYYMHWVRQAPGQGLEWMGVINPSGGSTSYAQKFQGRVTMTRDTSTSTVYMELSSLRSEDTAVYYCAREGSGYDESMDVWGQGTTVTVSS
VL: not shown
notes: huIgG1; also called TI-45; ADI-19123
Turning to B12, the binding result in the assay with mouse TREM2 on BWZ cells and in the assay with human TREM2 on BWZ cells was “no binding” throughout.

B13: T1-58 (antibody, IgG1, V domains shown)
VH: QLQLQESGPGLVKPSETLSLTCTVSGGSISSSSYYWGWIRQPPGKGLEWIGSIYYSGSTYYNPSLKSRVTISVDTSKNQFSLKLSSVTAADTAVYYCARQEYGDGYFDLWGRGTLVTVSS
VL: not shown
notes: huIgG1; also called TI-58; ADI-19133
As for B13, the binding result in the assay with human TREM2 on BWZ cells is on record as “no binding”.

B14: T1-9 (antibody, IgG1, V domains shown)
VH: QVQLVQSGAEVKKPGASVKVSCKASGYTFTSYYMHWVRQAPGQGLEWMGIINPSGGSTSYAQKFQGRVTMTRDTSTSTVYMELSSLRSEDTAVYYCAREAGYDISSAFDIWGQGTMVTVSS
VL: not shown
notes: huIgG1; also called TI-9; ADI-19076
In the case of B14, the binding result in the assay with mouse TREM2 on BWZ cells and with human TREM2 on BWZ cells was “no binding” throughout.

B15: T1-6 (antibody, IgG1, V domains shown)
VH: QVQLVQSGAEVKKPGASVKVSCKASGYTFTSYYMHWVRQAPGQGLEWMGVINPSGGSTSYAQKFQGRVTMTRDTSTSTVYMELSSLRSEDTAVYYCARESGHSYVSSFDPWGQGTLVTVSS
VL: not shown
notes: huIgG1; also called TI-6; ADI-19072
On to B15, for which the binding result with mouse TREM2 on BWZ cells and with human TREM2 on BWZ cells was “no binding” in each case.

B16: T1-52 (antibody, IgG1, V domains shown)
VH: QVQLVQSGAEVKKPGSSVKVSCKASGGTFSSYAISWVRQAPGQGLEWMGSIIPIFGTANYAQKFQGRVTITADESTSTAYMELSSLRSEDTAVYYCARDRGQYSSSWYGRMDVWGQGTTVTVSS
VL: DIQMTQSPSTLSASVGDRVTITCRASQSISSWLAWYQQKPGKAPKLLIYKASSLESGVPSRFSGSGSGTEFTLTISSLQPDDFATYYCQQSSADSPFTFGGGTKVEIK
notes: huIgG1; also called TI-52; ADI-19127
B16: the binding result in the assay with mouse TREM2 on BWZ cells and with human TREM2 on BWZ cells was “no binding” throughout.

B17: T1-18 (antibody, IgG1, V domains shown)
VH: EVQLVESGGGLVQPGRSLRLSCAASGFTFDDYAMHWVRQAPGKGLEWVSGISWNSGDIGYADSVKGRFTISRDNAKNTLYLQMNSLRAEDTALYYCAKGPRMVTHLDVWGQGTMVTVSS
VL: DIQMTQSPSTLSASVGDRVTITCRASQSISSWLAWYQQKPGKAPKLLIYKASSLESGVPSRFSGSGSGTEFTLTISSLQPDDFATYYCQQDSIYPITFGGGTKVEIK
notes: huIgG1; also called TI-18; ADI-19085
Turning to B17, the binding result in the assay with mouse TREM2 on BWZ cells and with human TREM2 on BWZ cells was “no binding” throughout.

B18: T1-51 (antibody, IgG1, V domains shown)
VH: QVQLVQSGAEVKKPGSSVKVSCKASGGTFSSYAISWVRQAPGQGLEWMGSIIPIFGTANYAQKFQGRVTITADESTSTAYMELSSLRSEDTAVYYCARSGGYSSSWYGTGYDYWGQGTLVTVSS
VL: DIQMTQSPSTLSASVGDRVTITCRASQSISSWLAWYQQKPGKAPKLLIYKASSLESGVPSRFSGSGSGTEFTLTISSLQPDDFATYYCQQFQSYPFTFGGGTKVEIK
notes: huIgG1; also called TI-51; ADI-19126
With B18, the binding result in the assay with mouse TREM2 on BWZ cells and with human TREM2 on BWZ cells was “no binding” each time.

B19: T1-42 (antibody, IgG1, V domains shown)
VH: QVQLVESGGGVVQPGRSLRLSCAASGFTFSSYGMHWVRQAPGKGLEWVAVIWYDGSNKGYADSVKGRFTISRDNSKNTLYLQMNSLRAEDTAVYYCARELMVTSGGWLYGMDVWGQGTTVTVSS
VL: EIVMTQSPATLSVSPGERATLSCRASQSVSSNLAWYQQKPGQAPRLLIYGASTRATGIPARFSGSGSGTEFTLTISSLQSEDFAVYYCQQYNVHPPRTFGGGTKVEIK
notes: huIgG1; also called TI-42; ADI-19116
For B19, the binding result in the assay with mouse TREM2 on BWZ cells and with human TREM2 on BWZ cells was “no binding” each time.

B20: T1-50 (antibody, IgG1, V domains shown)
VH: QVQLVQSGAEVKKPGASVKVSCKASGYTFTSYYMHWVRQAPGQGLEWMGIINPGGGSTSYAQKFQGRVTMTRDTSTSTVYMELSSLRSEDTAVYYCAREAGTMSSAFDIWGQGTMVTVSS
VL: not shown
notes: huIgG1; also called TI-50; ADI-19125
On to B20, for which the binding result with mouse TREM2 on BWZ cells and with human TREM2 on BWZ cells was “no binding” throughout.

B21: T1-38 (antibody, IgG1, V domains shown)
VH: QVQLVESGGGVVQPGRSLRLSCAASGLTFSSYGMHWVRQAPGKGLEWVAVISYDGSNKYYADSVKGRFTISRDNSKNTLYLQMNSLRAEDTAVYYCARERGTYYYASGWANWGQGTLVTVSS
VL: not shown
notes: huIgG1; also called TI-38; ADI-19112
Turning to B21, the binding result with mouse TREM2 on BWZ cells and with human TREM2 on BWZ cells was “no binding” each time.

B22: T1-41 (antibody, IgG1, V domains shown)
VH: not shown
VL: DIQLTQSPSSVSASVGDRVTITCRASQDISSWLAWYQQKPGKAPKLLIYAASSLQSGVPSRFSGSGSGTDFTLTISSLQPEDFATYYCQQAVIHPPYTFGGGTKVEIK
notes: huIgG1; also called TI-41; ADI-19115
For the molecule B22, the binding result in the assay with mouse TREM2 on BWZ cells and with human TREM2 on BWZ cells was “no binding” each time.

B23: T1-43 (antibody, IgG1, V domains shown)
VH: QVQLVQSGAEVKKPGASVKVSCKASGYTFTSYYMHWVRQAPGQGLEWMGIINPSGGSTSYAQKFQGRVTMTRDTSTSTVYMELSSLRSEDTAVYYCAREAGNYYDIESAFDIWGQGTMVTVSS
VL: not shown
notes: huIgG1; also called TI-43; ADI-19117
As to B23, the binding result with mouse TREM2 on BWZ cells and with human TREM2 on BWZ cells was “no binding” in each case.

The values above are taken from patent publication US11472877 (Alector, dated 2022).
